Results taken from patent publication US20090155843A1 (ANAPHORE, published 2009).
Changes are numbered by the printed parent chain.

B1: TN3-2-B1-c22-11 (designed binder)
chain: ALQTVCLKGTKVHMKCFLAFTQTKTFHEASEDCISRGGTLSTPQTGSENDALYEYLRQSVGNEAEIWLGLNKRWSRYFWVDMTGTRIAYKNWERPEDAQPDPSNWENCAVLSGAANGKWFGKRCRDQLPYICQFGIV
notes: Monomeric tetranectin CTLD clone
B2: TN3-2-B1-c22-9 (designed binder)
chain: B1 chain with P95N, E96R
notes: as for B1
B3: TN3-2-B1-C31 (designed binder)
chain: B1 chain with R94H, P95S, E96S
notes: as for B1
B4: TN3-2-B1-C29 (designed binder)
chain: B1 chain with R94G, P95I, D97W, S103T, W105F
notes: as for B1
B5: TN3-2-B1-C53 (designed binder)
chain: B1 chain with P95L, E96A, S103F
notes: as for B1
B6: TN3-2-B1-C20 (designed binder)
chain: B1 chain with P95R, E96Q
notes: as for B1
B7: TN3-2-B1-c22-8 (designed binder)
chain: B1 chain with E93A, P95T, E96Q
notes: as for B1
B8: TN3-2-B1-C19 (designed binder)
chain: B1 chain with R94L, P95I, E96R, S103A
notes: as for B1
B9: TN3-2-B1-c22-13 (designed binder)
chain: B1 chain with P95L, E96R, A98S
notes: as for B1
B10: TN3-2-B1-c22-10 (designed binder)
chain: B1 chain with E93V, P95Q, E96R
notes: as for B1
B11: TN3-2-B1-c22-3 (designed binder)
chain: B1 chain with E93K, R94L, E96Q, D97H, Q99H, D101E
notes: as for B1
B12: TN3-2-B1-c22-12 (designed binder)
chain: B1 chain with E93S, P95Q
notes: as for B1
B13: TN3-2-B1-c22-16 (designed binder)
chain: B1 chain with E93L, R94L, E96Q, D97H, A98E, D101E
notes: as for B1
B14: TN3-2-B1-c22-6 (designed binder)
chain: B1 chain with E93M, R94L, P95E, E96K
notes: as for B1
B15: TN3-2-B1-C22-7 (designed binder)
chain: B1 chain with E93G, P95K
notes: Monomeric tetranectin CTLD clone; also called TN3-B1-C22-7; monomeric form of TN2B1C22-7
B16: TN3-2-B1-C24 (designed binder)
chain: B1 chain with P95T, E96T
notes: as for B1
B17: TN3-2-B1-c7 (designed binder)
chain: B1 chain with R94L, P95A, E96S, S103A
notes: as for B1
B18: TN3-2-B1-c22-7 (designed binder)
chain: B1 chain with E93G, P95K
notes: as for B1
B19: TN3-2-B1-c22-1 (designed binder)
chain: B1 chain with E93K, R94L, E96Q, D97H, Q99N, D101S
notes: as for B1
B20: TN3-2-B1-c22-4 (designed binder)
chain: B1 chain with E93A, R94L, E96Q, D97H, Q99S, D101S
notes: as for B1
B21: TN3-2-B1-c22-15 (designed binder)
chain: B1 chain with E93Q, R94L, E96Q, D97H, Q99D, D101A
notes: as for B1
B22: TN3-2-B1-C1 (designed binder)
chain: B1 chain with R94L, P95L, E96S, S103V
notes: as for B1
B23: TN3-2-B1-C22 (designed binder)
chain: B1 chain with R94L, E96Q, D97H
notes: Monomeric tetranectin CTLD clone; also called monomeric form of TN2B1C22
B24: TN3-2-B1-c22-2 (designed binder)
chain: B1 chain with E93L, R94L, E96Q, D97H, Q99N, D101N
notes: as for B1

Molecular target: T1, human tumor necrosis factor (TNF) (human, UniProt P01375 77-233)
T1 construct: The assays use 'human TNF'; The target of the phage display selection is printed only as 'TNF'; also called TNF-alpha
T1 sequence (P01375 77-233 limits assumed): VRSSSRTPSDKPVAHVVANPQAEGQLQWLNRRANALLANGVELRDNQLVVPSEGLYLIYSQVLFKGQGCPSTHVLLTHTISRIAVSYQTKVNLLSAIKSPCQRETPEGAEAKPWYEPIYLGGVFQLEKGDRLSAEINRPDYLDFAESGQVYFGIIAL
Assay: phage display selection and maturation

| Binder | binding result |
| --- | --- |
| B1 | binds |
| B2 | binds |
| B3 | binds |
| B4 | binds |
| B5 | binds |
| B6 | binds |
| B7 | binds |
| B8 | binds |
| B9 | binds |
| B10 | binds |
| B11 | binds |
| B12 | binds |
| B13 | binds |
| B14 | binds |
| B15 | binds |
| B16 | binds |
| B17 | binds |
| B18 | binds |
| B19 | binds |
| B20 | binds |
| B21 | binds |
| B22 | binds |
| B23 | binds |
| B24 | binds |
